Assay results taken from patent publication US20200040057A1 (IMMATICS BIOTECHNOLOGIES, published 2020).

How the values were obtained:
HLA-B*07 [1] = target: HLA-B*07 (human); experiment: UV peptide exchange ELISA; +++ = yield >50
HLA-B*07 [2] = target: HLA-B*07 (human); experiment: UV peptide exchange ELISA; ++++ = yield >75%

Binder	peptide exchange yield (HLA-B*07 [1]) [%]	peptide exchange yield (HLA-B*07 [2]) [%]
LPVSPARAL	50 to 75	
RPLPVSPARAL	50 to 75	
NPIFGRKEL	50 to 75	
YPMIPPAQL	50 to 75	
MPFRNIRSIL	50 to 75	
RPSQLAPATL	50 to 75	
LPMTVISVL		> 75
FPNVYSTLVL		> 75
LVILQHQAM	50 to 75	
VPVSHPVL		> 75
RPYSIYPHGVTF		> 75
GSRPVTGSV	50 to 75	
APLKMLAL		> 75
VPAQRLGLLL	50 to 75	
IPIRVDQNGAF	50 to 75	
MPKTNLSKM	50 to 75	
SPSREASAL	50 to 75	
WPNHIMLVL		> 75
TPRIGPKVSL	50 to 75	
APRGPAQGEAA		> 75
MPRLLRLSL	50 to 75	
RNRQVATAL	50 to 75	
SSASFSSELFRH	50 to 75	
VPYYPRANL	50 to 75	
KTKSLAQQL	50 to 75	

Binder	peptide exchange yield (HLA-B*07 [1]) [%]	peptide exchange yield (HLA-B*07 [2]) [%]
HPNKIKASL	50 to 75	
VWEPQGSSRSL	50 to 75	
LPLGGHKSL	50 to 75	
RPPPSRRAVL	50 to 75	
NPERHKPSF	50 to 75	
RPLPNSVIHV	50 to 75	
RPQPQPRPAL		> 75
APRGSPPI	50 to 75	
GPKKFIVKL	50 to 75	
GPFQRAAL	50 to 75	
RPSFPNLTSF		> 75
VPSDITTAF	50 to 75	
APTPRPKVL		> 75
VPRRPARAL	50 to 75	
QPVLPSPAC		> 75
APLHGGGSL	50 to 75	
RPRLRDLPAL	50 to 75	
VPAQRLGLL		> 75
FPRLVGPDFF		> 75
RPVQGIPTY	50 to 75	
TVRPKNAAL	50 to 75	
HVAQPAVVL	50 to 75	
LPSPAHAFRAL	50 to 75	
RPRQTGALM		> 75
APMAPGRSPL		> 75

Binder	peptide exchange yield (HLA-B*07 [1]) [%]	peptide exchange yield (HLA-B*07 [2]) [%]
SPSSVFTSK	50 to 75	
SVAIAHGVF		> 75
YPSPLNKHSF	50 to 75	
VPVSRPVL		> 75
SPSQTVQRAV		> 75
KPRTIYSSL		> 75
MPAGGGPRSL		> 75
FPYSGDKILV	50 to 75	
IPWFIKTAF		> 75
LPALLRSGLTL		> 75
VPGSDPARYEFL	50 to 75	
KPKVESQAL		> 75
SPRIPFSTF		> 75
SAQSLHPVL	50 to 75	
SPVFYVQTL		> 75
LPVSSPVTL		> 75
APFHIDRLF	50 to 75	
RPSGTAGAAL	50 to 75	
QPRLVPGETL		> 75
FPRTVKHIDAAL		> 75
RLAHVRARL	50 to 75	
VAAAARLTL	50 to 75	
SPSYTQASL		> 75
LPRALMRST	50 to 75	
